Measured values as given in patent US6117976, “Manufacture and use of polypeptides tagged using binding molecules” (Medical Research Council, dated 2000).
No end group written: not given here.

Target: calmodulin (Homo sapiens (Human))
Assay: not stated (off-rate from calmodulin)

## CEIKRAAAINLKALAALAKKILIK (also: fluorescein label, site not given here) [TAG 4 peptide, fluoresceinated]
  koff: < 0.0001 s⁻¹

## CEIKRAAAINLKALAALAKKIL (also: fluorescein label, site not given here) [TAG 2 peptide, fluoresceinated]
  koff: < 0.0001 s⁻¹
